Source: article PMC5095173, “Disulfide-activated protein kinase G Iα regulates cardiac diastolic relaxation and fine-tunes the Frank–Starling response” (Nature Communications, 2016)

Target: T1, phospholamban (mouse myocardium) (mouse (endogenous in mouse heart)), P61014
T1 chain: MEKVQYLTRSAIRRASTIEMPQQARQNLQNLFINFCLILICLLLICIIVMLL
Test: SDS-PAGE of samples not boiled, with immunoblot; mouse heart homogenate, samples not boiled before western blotting for total PLN; WT and C42S PKGIα KI hearts
Settings: remark: other sources report otherwise

stoichiometry N: 5
B1: phospholamban (mouse myocardium), P61014 1-52 (natural protein)
chain: MEKVQYLTRSAIRRASTIEMPQQARQNLQNLFINFCLILICLLLICIIVMLL
